{
  "source": "paper PMC8920257",
  "test_in_all_cases": "SPR",
  "key": {"ACE2 p.Pro389His (human)": {"target": "ACE2 p.Pro389His (human) (UniProt Q9BYF1)"}, "ACE2 p.Thr27Arg (human)": {"target": "ACE2 p.Thr27Arg (human) (UniProt Q9BYF1)"}, "ACE2 p.Lys26Arg (human)": {"target": "ACE2 p.Lys26Arg (human) (UniProt Q9BYF1)"}, "ACE2 p.Glu35Lys (human)": {"target": "ACE2 p.Glu35Lys (human) (UniProt Q9BYF1)"}, "ACE2 p.Ser19Pro (human)": {"target": "ACE2 p.Ser19Pro (human) (UniProt Q9BYF1)"}, "ACE2 p.Glu37Lys (human)": {"target": "ACE2 p.Glu37Lys (human) (UniProt Q9BYF1)"}, "ACE2 p.Gly326Glu (human)": {"target": "ACE2 p.Gly326Glu (human) (UniProt Q9BYF1)"}, "ACE2 p.Glu329Gly (human)": {"target": "ACE2 p.Glu329Gly (human) (UniProt Q9BYF1)"}, "ACE2 p.Phe40Leu (human)": {"target": "ACE2 p.Phe40Leu (human) (UniProt Q9BYF1)"}, "ACE2 p.Asp355Asn (human)": {"target": "ACE2 p.Asp355Asn (human) (UniProt Q9BYF1)"}},
  "data": [
    {"substance": "SARS-CoV-2 Spike receptor binding domain (from UniProt P0DTC2) (domain or fragment)", "values": [
      {"measurement": "SPR ΔΔG against ACE2 WT", "setting": "ACE2 p.Pro389His (human)", "result": 0.27, "unit": "kcal/mol"},
      {"measurement": "ΔΔG against ACE2 WT", "setting": "ACE2 p.Pro389His (human)", "result": 0.12, "unit": "kcal/mol"},
      {"measurement": "SPR ΔΔG against ACE2 WT", "setting": "ACE2 p.Thr27Arg (human)", "result": -0.11, "unit": "kcal/mol"},
      {"measurement": "SPR ΔΔG against ACE2 WT", "setting": "ACE2 p.Lys26Arg (human)", "result": 0.26, "unit": "kcal/mol"},
      {"measurement": "ΔΔG against ACE2 WT", "setting": "ACE2 p.Lys26Arg (human)", "result": 0.31, "unit": "kcal/mol"},
      {"measurement": "SPR ΔΔG against ACE2 WT", "setting": "ACE2 p.Glu35Lys (human)", "result": -0.36, "unit": "kcal/mol"},
      {"measurement": "ΔΔG against ACE2 WT", "setting": "ACE2 p.Glu35Lys (human)", "result": -0.29, "unit": "kcal/mol"},
      {"measurement": "SPR ΔΔG against ACE2 WT", "setting": "ACE2 p.Ser19Pro (human)", "result": 0.59, "unit": "kcal/mol"},
      {"measurement": "SPR ΔΔG against ACE2 WT", "setting": "ACE2 p.Glu37Lys (human)", "result": -1.33, "unit": "kcal/mol"},
      {"measurement": "ΔΔG against ACE2 WT", "setting": "ACE2 p.Glu37Lys (human)", "result": -1.25, "unit": "kcal/mol"},
      {"measurement": "SPR ΔΔG against ACE2 WT", "setting": "ACE2 p.Gly326Glu (human)", "result": -0.65, "unit": "kcal/mol"},
      {"measurement": "ΔΔG against ACE2 WT", "setting": "ACE2 p.Gly326Glu (human)", "result": -0.67, "unit": "kcal/mol"},
      {"measurement": "SPR ΔΔG against ACE2 WT", "setting": "ACE2 p.Glu329Gly (human)", "result": -0.09, "unit": "kcal/mol"},
      {"measurement": "ΔΔG against ACE2 WT", "setting": "ACE2 p.Glu329Gly (human)", "result": -0.06, "unit": "kcal/mol"},
      {"measurement": "SPR ΔΔG against ACE2 WT", "setting": "ACE2 p.Phe40Leu (human)", "result": 0.11, "unit": "kcal/mol"},
      {"measurement": "ΔΔG against ACE2 WT", "setting": "ACE2 p.Phe40Leu (human)", "result": 0.14, "unit": "kcal/mol"},
      {"measurement": "SPR ΔΔG against ACE2 WT", "setting": "ACE2 p.Asp355Asn (human)", "result": "< -3.16", "unit": "kcal/mol"}
    ]}
  ]
}
